B1: amino-terminal fragment: Myc-tagged fragment, amino acid residues 63-288 of Xaxin (protein)
chain: RPDLDLGYEPEGSASPTPPYLKWAESLHSLLDDQDGIHLFRTFLQQENCADLLDFWFACSGFRKLEPNDSKVEKRLKLAKAIYKKYVLDSNGIVSRQIKPATKSFIKDCVLRQQIDPAMFDQAQMEIQSMMEDNTYPVFLKSDIYLEYTTIGGESPKNYSDQSSGSGTGKGPSGYLPTLNEDEEWRCDQGGEHERERECIPSSLFSQKLALDSSSHCAGSNRRLSD
modifications: left off: small tags and cut ends
notes: Myc-tagged fragment, amino acid residues 63-288 of Xaxin
B2: carboxyl-terminal fragment: Myc-tagged fragment, amino acid residues 429-713 of Xaxin (protein)
chain: SGPSVISHKLPSGPPMHHFNSRYSETGCVGMQIRDAHEENPESILDEHVQRVMKTPGCQSPGTGRHSPKSRSPDGHLSKTLPGSLGTMQTGHGKHSSKSTAKVDSGNLHHHKHVYHHVHHHGGVKPKEQIDGESTQRVQTNFPWNVESHNYATKSRNYAESMGMAPNPMDSLAYSGKVSMLSKRNAKKADLGKSESASHEMPVVPEDSERHQKILQWIMEGEKEIIRHKKSNHSSSSAKKQPPTELARPLSIERPGAVHPWVSAQLRNVVQPSHPFIQDPTMPPN
modifications: left off: small tags and cut ends
notes: Myc-tagged fragment, amino acid residues 429-713 of Xaxin
B3: AID: fragment of amino acid residues 489-777 of Xaxin, axin self-interaction domain (protein)
chain: PGTGRHSPKSRSPDGHLSKTLPGSLGTMQTGHGKHSSKSTAKVDSGNLHHHKHVYHHVHHHGGVKPKEQIDGESTQRVQTNFPWNVESHNYATKSRNYAESMGMAPNPMDSLAYSGKVSMLSKRNAKKADLGKSESASHEMPVVPEDSERHQKILQWIMEGEKEIIRHKKSNHSSSSAKKQPPTELARPLSIERPGAVHPWVSAQLRNVVQPSHPFIQDPTMPPNPAPNPLTQLVSKPGARLEEEEKKAAKMPQKQRLKPQKKNVSAPSQPCDNIVVAYYFCGEPIPYR
modifications: left off: large carriers
B4: GID-2/his: His-tagged fusion protein of Xaxin residues 320-429, expressed in E. coli and purified on nickel agarose (protein)
chain: DSEQQSMSSDADTMSLTDSSVDGIPPYRLRKHYRREMQESANANGRGPLPHIPRTYHMPKDIHVDPEKFAAELISRLEGVLRDREAEQKLEERLKRVRAEEEGDDGDVSS
modifications: left off: small tags and cut ends
notes: His-tagged fusion protein of Xaxin residues 320-429, expressed in E. coli and purified on nickel agarose

Columns and labels:
GSK-3 beta [1] = assay: In ovo tau phosphorylation assay: GSK-3 beta and Xaxin constructs co-expressed in Xenopus oocytes; type: cell-based; conditions: construct co-expressed with GSK-3 beta in Xenopus oocytes; tau microinjected; PHF-1 immunoblot
Procedure: Stage VI Xenopus oocytes were isolated by collagenase treatment (Smith et al., 1994, Meth. Cell Biol. 36:45-58) and were injected with mRNA prepared by in vitro transcription (mMessage Machine™; Ambion, Austin, Tex.). 10 nanoliters of mRNA (containing 1-2 nanograms per nanoliter) was injected for each construct (unless otherwise specified), and the injected oocytes were incubated for 16 hours at 18° C. To analyze the effects of Xaxin constructs on dorsal-ventral pattern formation, Xenopus embryos were injected with 10 nanoliters of mRNA (0.1-0.2 nanogram per nanoliter) into one dorsal or ventral cell of a 4 cell embryo and dorsal axes were assessed at the tadpole stage. For Xaxin co-immunoprecipitation, fertilized eggs were injected with 10 nanoliters of Xaxin tagged with Myc, with hemagglutinin, or with both Myc and hemagglutinin (1 nanogram per nanoliter) and harvested at the blastula stage (stage 8).
(§1) In ovo phosphorylation of tau by GSK-3 beta was performed by microinjection of tau protein into oocytes expressing GSK-3 beta and Xaxin constructs. After 90 minutes, oocytes were homogenized and tau phosphorylation was analyzed in western blots using phospho-specific antibodies as described (Hedgepeth et al., 1997, Develop. Biol. 185:82-91). In vitro assays for GSK-3 beta activity were performed as described (Klein et al., 1996, Proc. Natl. Acad. Sci. USA 93:8455-8459). Recombinant GID-2/his protein (described below) was purified by affinity chromatography and added to in vitro assays at selected concentrations.
In the experiments presented in this example, a tau phosphorylation assay (described in Hedgepeth et al., 1997, Develop. Biol. 185:82-91) was used to examine the activity of GSK-3 beta in Xenopus oocytes in the presence of full length axin and axin deletion mutants. […] Furthermore, GSK-3 beta-dependent tau phosphorylation occurs in oocytes at the same sites (tau serine residues 396 and 404) that are phosphorylated by GSK-3 beta in vitro and occurs with similarly rapid kinetics.
GSK-3 beta was expressed in oocytes together with Myc-tagged full length Xaxin or with the amino-terminal (amino acid residues 63-288), GID-1 (amino acid residues 277-545), or carboxyl-terminal (amino acid residues 429-713) fragments of Xaxin, as depicted in FIG. 1A. Purified tau protein was then microinjected into the oocytes, and phosphorylation of tau was measured by immunoblotting using antibody PHF-1 or with antibodies that detect all (i.e. phosphorylated and non-phosphorylated) forms of tau.
In order to identify the domain of axin necessary for GSK-3 beta binding, multiple Myc-tagged GID deletion constructs (shown diagrammatically in FIG. 3A) were individually expressed in Xenopus oocytes in which GSK-3 beta was also expressed. Tau protein was microinjected into the oocytes, and immunoblotting was performed using phosphorylation-state-specific tau antibodies. A parallel group of oocytes expressing GSK-3 beta and the Myc-tagged GID deletion constructs were lysed, and GID proteins were immunoprecipitated using a Myc-specific antibody. The presence or absence of GSK-3 beta in GID immunoprecipitates was detected using GSK-3 beta-specific antibodies. GID deletion constructs which included amino acid residues 380-404 of Xaxin (i.e. constructs GID-1, GID-2, GID-4, GID-5, and GID-6) bound GSK-3 beta and inhibited GSK-3 beta mediated tau phosphorylation, as indicated in FIG. 3A. […] However, changing leucine residue 392 in FIG. 3B to proline abolishes its activity.

Xenopus embryos = assay: Dorsal axis duplication / dorsalization in Xenopus embryos after mRNA injection; type: in vivo; conditions: construct expressed in embryos, injection side not stated
GSK-3 beta [2] = assay: Co-immunoprecipitation of GSK-3 beta with Myc-tagged Xaxin constructs in Xenopus oocytes; type: binding; conditions: Myc-tagged construct co-expressed with GSK-3 beta in Xenopus oocytes; anti-Myc IP, anti-GSK-3 beta blot
beta-catenin = beta-catenin protein accumulation in Xenopus oocytes (immunoblot); type: cell-based; conditions: construct mRNA expressed in Xenopus oocytes
Procedure: FIG. 2A is an image of an immunoblot of Xenopus cytoplasmic extracts obtained from Xenopus embryos in which beta-catenin was expressed, using an antibody which binds specifically with beta-catenin (described in McCrea et al., 1993, J. Cell. Biol. 123:477-84). The embryo corresponding to lane 2 was incubated in the presence of 20 millimolar LiCI. Extracts corresponding to lanes 3-5, 7, and 8 were obtained from embryos in which full-length (lane 8) Xaxin or the C-term (lane 3), GID1 (“GID”; lanes 4 and 7), or N-term (lane 5) fragments of Xaxin were expressed.
Although endogenous GSK-3 beta is not present at sufficient levels to detect using the tau assay, inhibition of GSK-3 beta is known to cause stabilization of cytoplasmic beta-catenin (Cadigan et al., 1997, Genes Dev. 11:3286-3305; Miller et al., 1996, Genes Develop. 10:2527-2539), and this serves as a widely used assay for downstream activation of wnt signaling. Inhibition of endogenous GSK-3 beta activity also causes stabilization of beta-catenin in Xenopus embryos and oocytes (Hedgepeth et al., 1997, Develop. Biol. 185:82-91; Yost et al., 1998, Cell 93:1031-1041; Yost et al., 1996, Genes Develop. 10:1443-1454). For this reason, levels of beta-catenin protein were assessed in Xenopus oocytes which had been injected either with full length Xaxin mRNA or with mRNA encoding one of the amino-terminal, GID, or carboxyl-terminal domains of Xaxin.

FL Xaxin = molecular target: T1, FL Xaxin (Xenopus laevis, UniProt Q9YGY0); assay: Yeast two hybrid assay, interaction with FL Xaxin; type: binding; conditions: beta-galactosidase filter assay in S. cerevisiae
T1 construct: expressed in transfected cells; host or cells: Saccharomyces cerevisiae
Description: FL Xaxin was cloned in frame with the GAL4 DNA binding domain (BD) in plasmid pAS2-1 (Clontech) to yield BD plasmid. Expression of BD plasmid yielded a Xaxin-GAL4 fusion protein. FL Xaxin, deltaDIX Xaxin, and a fragment (designated “AID”) encoding amino acid residues 489-777 of Xaxin were cloned in frame with the GAL4 transcriptional activation domain (AD) in the vector pACT2 to yield AD plasmids. Yeast were transformed with BD and AD plasmids using previously described protocols (Clontech, Palo Alto, Calif.). Transformed colonies were selected and assayed for beta-galactosidase activity in order to detect interacting proteins. In addition, three Xenopus axin partial length cDNAs (designated Y2H 2, Y2H 6, Y2H 7; all in plasmid pACT2) isolated from a previous yeast two hybrid screen (Hedgepeth et al., 1999, Mech. Develop. 80:147-151) were analyzed. Purification of GID
Using the yeast two hybrid assay, the ability of axin to bind with itself, with other members of the wnt pathway, or with the G(alpha)q subunit of heterotrimeric G-proteins, was investigated. […]
Saccharomyces cerevisiae cells were transformed with the bait vector and with one of the target vectors. Interaction was assessed using a filter assay to detect beta-galactosidase activity, as described (Fields et al., 1989, Nature 340:245-247; Harper et al., 1993, Cell 75:805-816). […]

GSK-3 beta [3] = assay: In vitro GSK-3 beta activity assay with purified GID-2/his; type: biochemical
Procedure: as §1
A cDNA (GID-2) encoding amino acid residues 320-429 of Xaxin was cloned into pET29b (Novagen, Madison, Wis.) in frame with the His-epitope tag. The resulting encoded GID-2/his fusion protein was expressed in BL2I/DE3 cells and purified on nickel agarose according to standard procedures. […]
(§2) GSK-3 beta (25 nanomolar) was incubated with GID-2/his (up to 200-fold molar excess), and each mixture was assayed to detect either protein kinase activity or, in parallel, protein-protein interaction. Interaction between GSK-3 beta and GID-2/his was detected by purification on nickel agarose followed by immunoblotting with GSK-3 beta-specific antibodies. […]

GSK-3 beta [4] = assay: In vitro binding of GSK-3 beta to GID-2/his on nickel agarose; conditions: 25 nanomolar GSK-3 beta
Procedure: A cDNA (GID-2) encoding amino acid residues 320-429 of Xaxin was cloned into pET29b (Novagen, Madison, Wis.) in frame with the His-epitope tag. The resulting encoded GID-2/his fusion protein was expressed in BL2I/DE3 cells and purified on nickel agarose according to standard procedures. Purified GID-2/his was added to a reaction cocktail having a final volume of 20 microliters and containing 25 nanomolar recombinantly-generated GSK-3 beta in GSK-3 assay buffer, as described (Klein et al., 1996, Proc. Natl. Acad. Sci. USA 93:8455-8459). This reaction mixture was incubated at 0° C. for one hour. After this incubation period, half of the mixture was assayed for GSK-3 beta activity, and the other half was incubated with nickel-agarose at 4° C. for one hour with rotation. The agarose was washed three times using PBS, and then Laemmli sample buffer was added. The samples were boiled for five minutes and then subjected to immunoblotting using anti-GSK-3 beta antibody.
as §2

T1 sequence (Q9YGY0 whole entry): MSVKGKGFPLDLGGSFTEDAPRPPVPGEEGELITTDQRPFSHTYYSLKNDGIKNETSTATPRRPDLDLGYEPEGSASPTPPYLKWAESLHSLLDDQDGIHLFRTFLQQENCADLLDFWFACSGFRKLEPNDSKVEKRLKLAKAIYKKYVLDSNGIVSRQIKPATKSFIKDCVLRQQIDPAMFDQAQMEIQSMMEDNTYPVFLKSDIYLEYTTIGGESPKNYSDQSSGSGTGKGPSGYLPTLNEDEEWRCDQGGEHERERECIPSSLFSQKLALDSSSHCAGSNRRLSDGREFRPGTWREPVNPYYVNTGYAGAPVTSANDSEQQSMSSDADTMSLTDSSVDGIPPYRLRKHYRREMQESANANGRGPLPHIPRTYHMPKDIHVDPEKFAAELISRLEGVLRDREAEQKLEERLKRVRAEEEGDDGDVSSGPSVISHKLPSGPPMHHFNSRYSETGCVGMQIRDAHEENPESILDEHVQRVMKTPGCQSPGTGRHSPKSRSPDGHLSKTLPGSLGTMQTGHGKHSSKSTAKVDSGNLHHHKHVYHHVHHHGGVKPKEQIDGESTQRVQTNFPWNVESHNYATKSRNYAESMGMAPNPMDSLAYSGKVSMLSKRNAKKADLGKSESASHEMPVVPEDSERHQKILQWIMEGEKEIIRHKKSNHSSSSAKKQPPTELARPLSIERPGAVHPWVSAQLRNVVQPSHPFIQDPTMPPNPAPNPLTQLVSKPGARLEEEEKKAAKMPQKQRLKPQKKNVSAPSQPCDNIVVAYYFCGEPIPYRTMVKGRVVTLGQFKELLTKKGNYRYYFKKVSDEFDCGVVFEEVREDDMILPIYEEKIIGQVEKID

| Molecule | GSK-3 beta-mediated tau phosphorylation (GSK-3 beta activity) (GSK-3 beta [1]) | effect on axial development / axis formation (Xenopus embryos) | binding with GSK-3 beta (co-immunoprecipitation) (GSK-3 beta [2]) | accumulation of beta-catenin (beta-catenin) | interaction with FL Xaxin (self-interaction) (FL Xaxin) | GSK-3 beta mediated phosphorylation of the GS-2 peptide (GSK-3 beta [3]; 25 nanomolar GSK-3 beta, GID-2/his up to 200-fold molar excess) | phosphorylation of tau by GSK-3 beta in vitro (GSK-3 beta [3]; GID-2/his at a 200-fold molar excess) | binding of GSK-3 beta (nickel agarose, immunoblot) (GSK-3 beta [4]) |
| --- | --- | --- | --- | --- | --- | --- | --- | --- |
| B1 | no effect | no apparent effect | Neither the amino- nor carboxyl-terminal fragments of axin bound | not observed |  |  |  |  |
| B2 | no effect | no apparent effect | Neither the amino- nor carboxyl-terminal fragments of axin bound | not observed |  |  |  |  |
| B3 |  |  |  |  | sufficient to mediate axin self-interaction |  |  |  |
| B4 |  |  |  |  |  | no significant effect | did not inhibit | bound specifically |

Source: patent US20010052137A1, “Axin domain-like polypeptide inhibitors of glycogen synthase kinase 3 beta activity and activators of wnt signaling” (Trustees of the University of Pennsylvania, priority 2000, published 2001)
